1 substance from patent publication US5792634 can be followed below.

Bounds are passed on as bounds.

The target in this experiment is RNA polymerase II purified from rat liver (rat).

“RNA polymerase transcription factor SIII (Elongin), purified from rat liver” yielded a rate of RNA chain elongation, runoff transcription from the AdML promoter above 5 fold.
